Assay results as given in patent US20170022281A1 (AbbVie / Abbott, published 2017).

T1: human PRLR on cells (human, UniProt P16471 25-622)
T1 construct: Endogenous on T47D cells, transfected in Baf3-hPRLR cells; also called hPRLR; T47D cells
T1 sequence: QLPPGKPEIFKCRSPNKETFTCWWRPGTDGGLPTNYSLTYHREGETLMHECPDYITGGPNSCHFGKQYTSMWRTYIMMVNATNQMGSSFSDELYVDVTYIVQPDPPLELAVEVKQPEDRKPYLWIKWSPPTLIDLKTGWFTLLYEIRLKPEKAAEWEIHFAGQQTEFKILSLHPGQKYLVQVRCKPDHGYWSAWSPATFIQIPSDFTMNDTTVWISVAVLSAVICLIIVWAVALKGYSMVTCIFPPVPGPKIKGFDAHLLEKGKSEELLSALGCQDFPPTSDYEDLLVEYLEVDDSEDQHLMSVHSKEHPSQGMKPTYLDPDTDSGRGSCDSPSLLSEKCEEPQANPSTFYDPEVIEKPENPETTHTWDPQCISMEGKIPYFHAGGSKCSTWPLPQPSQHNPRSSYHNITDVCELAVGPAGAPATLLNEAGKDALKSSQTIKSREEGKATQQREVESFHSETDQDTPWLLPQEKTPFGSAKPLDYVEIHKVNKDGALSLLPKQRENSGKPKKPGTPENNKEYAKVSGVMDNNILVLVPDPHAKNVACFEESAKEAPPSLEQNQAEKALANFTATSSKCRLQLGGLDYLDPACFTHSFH

T2: rat PRLR on Nb2-11 rat lymphoma cells (rat, UniProt P05710 20-610)
T2 construct: whole, on cells
T2 sequence (looked up): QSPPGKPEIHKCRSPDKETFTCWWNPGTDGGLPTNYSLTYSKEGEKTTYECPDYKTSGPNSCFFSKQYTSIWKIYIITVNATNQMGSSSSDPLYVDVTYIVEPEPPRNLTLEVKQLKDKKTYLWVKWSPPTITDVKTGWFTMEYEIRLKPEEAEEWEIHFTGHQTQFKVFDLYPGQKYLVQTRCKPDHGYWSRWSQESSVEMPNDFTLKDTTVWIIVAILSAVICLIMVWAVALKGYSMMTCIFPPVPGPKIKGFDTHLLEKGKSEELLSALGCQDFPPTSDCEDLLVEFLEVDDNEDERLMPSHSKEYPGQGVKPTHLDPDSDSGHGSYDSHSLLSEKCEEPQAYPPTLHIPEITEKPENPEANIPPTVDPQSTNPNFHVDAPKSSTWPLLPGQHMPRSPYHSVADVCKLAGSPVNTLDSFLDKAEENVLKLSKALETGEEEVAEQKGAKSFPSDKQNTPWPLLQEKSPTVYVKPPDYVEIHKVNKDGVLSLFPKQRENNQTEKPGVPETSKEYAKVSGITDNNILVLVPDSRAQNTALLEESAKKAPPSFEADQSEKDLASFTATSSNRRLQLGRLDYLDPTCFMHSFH

T3: mouse PRLR on Baf3-mPRLR cells (mouse, UniProt Q08501 20-608)
T3 construct: whole, on cells
T3 sequence (looked up): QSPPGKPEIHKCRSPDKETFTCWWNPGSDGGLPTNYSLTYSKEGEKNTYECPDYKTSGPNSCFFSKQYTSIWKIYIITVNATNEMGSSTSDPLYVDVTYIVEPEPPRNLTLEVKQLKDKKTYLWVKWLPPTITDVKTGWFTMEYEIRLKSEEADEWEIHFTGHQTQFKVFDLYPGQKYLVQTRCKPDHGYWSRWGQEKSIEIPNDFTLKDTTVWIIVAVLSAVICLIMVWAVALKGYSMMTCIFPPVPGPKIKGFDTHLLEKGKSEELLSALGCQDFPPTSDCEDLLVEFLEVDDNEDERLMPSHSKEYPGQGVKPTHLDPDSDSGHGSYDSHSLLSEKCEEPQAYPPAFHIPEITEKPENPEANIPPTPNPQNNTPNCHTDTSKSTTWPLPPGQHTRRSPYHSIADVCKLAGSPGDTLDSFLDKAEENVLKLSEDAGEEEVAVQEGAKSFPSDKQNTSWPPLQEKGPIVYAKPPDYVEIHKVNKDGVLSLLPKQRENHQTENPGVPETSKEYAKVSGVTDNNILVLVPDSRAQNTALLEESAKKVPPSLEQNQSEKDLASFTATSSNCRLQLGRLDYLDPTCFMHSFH

T4: human PRLR (Biacore antigen) (human, UniProt P16471 25-234, limits assumed)
T4 construct: The construct injected over captured antibody is not described (a soluble form is likely); also called huPRLR
T4 sequence: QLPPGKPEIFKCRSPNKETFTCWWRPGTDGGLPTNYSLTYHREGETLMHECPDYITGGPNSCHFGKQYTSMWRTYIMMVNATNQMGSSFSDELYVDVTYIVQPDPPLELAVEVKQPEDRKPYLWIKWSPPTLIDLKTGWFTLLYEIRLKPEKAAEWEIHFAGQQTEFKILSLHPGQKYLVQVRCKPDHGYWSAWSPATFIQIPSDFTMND


What was measured:
human PRLR on cells = biological target: T1, human PRLR on cells; experiment: FACS T47D 10 ug/mL
[1] = biological target: T2, rat PRLR on Nb2-11 rat lymphoma cells; experiment: FACS Nb2-11 20 ug/mL
Description: (§1) Nb2-11 and Baf3-xPRLR cells were resuspended in FACS buffer (PBS+1% FBS) at 2 millions cells/mL. Cells were added to round bottom 96-well plate (100 uL/well) and treated with testing PRLR antibodies for 1 hr at 4 C. Cells were then washed with FACS buffer twice and incubated with 2nd antibody conjugated to ALEXA488 (Invitrogen) for 1 hr at 4 C. After two washes in FACS buffer, cells were resuspended in 1% formaldehyde in PBS. Cells were analyzed using LSRII flowcytometer.

[2] = biological target: T2, rat PRLR on Nb2-11 rat lymphoma cells; experiment: cell-based or functional assay
[3] = biological target: T3, mouse PRLR on Baf3-mPRLR cells; experiment: FACS Baf3-mPRLR 10 ug/mL
Description: as §1

[4] = biological target: T4, human PRLR (Biacore antigen); experiment: SPR Biacore

Row | Binder | FACS GeoMean-neg (human PRLR on cells) | FACS GeoMean-neg [1] | Nb2-11 proliferation IC50 [2] | FACS GeoMean-neg [3] | fold decrease in affinity against chAb7 [4]
1 | LFA102 (antibody, human IgG1, kappa, V domains shown, humanized IgG1 kappa comparator (WO 2008022295)) VH: EVQLVESGGGLVQPGGSLRLSCAVSGFTFSSYGMSWVRQAPGKRLEWVATVSSGGTYTYYPDSVKGRFTISRDNSKNTLYLQMNSLRAEDTAMYYCARHRGNYYATYYYAMDYWGQGTLVTVSS VL: DIVLTQSPDSLAVSLGERATINCKASKSVSTSGYTYMHWYQQKPGQPPKLLIYLASNRESGVPDRFSGSGSGTDFTLTISPVQAEDVATYYCQHSGELPPSFGQGTKLEIKR | 1640 | 98 | 0.93 µg/mL | 4 | 
2 | Ab6 (antibody, V domains shown, murine monoclonal, isotype G1; also called murine Ab6) VH: QVQLQQPGAELVMPGSSVKLSCKASGYTFTTYWMHWVKQRPGQGLEWIGEIDPSDSYSNYNQKFKDKATLTVDKSSSTAYMQLSSLTSEDSAVYYCARNGGLGPAWFSYWGQGTLVTVSA VL: DIVMTQSQKFMSTTVGDRVSITCKASQYVGTAVAWYQQKPGQSPKLLIYSASNRYTGVPDRFTDSGSGTDFTLTISNLQSEDLADYFCQQYSSYPWTFGGGTKLEIK | 1840 | 0 | > 30 µg/mL | 0 | 
3 | Ab10 (antibody, V domains shown, murine monoclonal, isotype G2a; also called murine Ab10) VH: EVQLHQSGPELVKPGASVKISCKASGYTFTDYNMHWMKQSHGKSLEWIGYFYPYNGGTGYNQEFKNKATLTVDISSSTAYMELRRLTSEDSAVYYCARGGWGIYYAMDYWGQGTSVTVSS VL: DIQMTQSPASLSASVGETVTITCRASENIYSYLTWYQQKQGKSPQLLVYNAKTLAEGVPSRFSGSGSGTQFSLKINSLQPEDFGSYHCQHHSVTPLTFGAGTKLELK | 2720 | 16 | > 30 µg/mL | 49 | 
4 | Ab5 (antibody, V domains shown, murine monoclonal, isotype G2a; also called murine Ab5) VH: QVQLQQPGAELVRPGTSVKLSCKASGYTFTSFWMHWVKQRPGQGLEWIGVIDPSDTYTNYNQKFKGKATLTVDTSSSTAYMQLSSLTSEDSAVYYCARGDYSNWFTYWGQGTLVTVSA VL: DVVMTQTPLSLPVSLGDQASISCRSSQRLVHSNGNTYLHWYLQKPGQSPKLLIYKVSNRFSGVPDRFSGSGSGTDFTLKISRVEAEDLGVYFCSQSTHVPWTFGGGTKLEIK | 1610 | 90 | 0.91 µg/mL | 166 | 
5 | Ab11 (antibody, V domains shown, murine monoclonal, isotype G1; also called murine Ab11) VH: EVKLVESGGGLVQPGGSLKLSCAASGFTFSDYYMFWVRQTPEKSLEWVAYISNGGGSTYYPDTVKGRFTISRDNAKNTLYLQMSRLKSEDTAMYYCSRQLFYYGSRGAMGYWGQGTSVTVSS VL: DVLMTQTPLSLPVSLGDQASISCRSSQSIVHSNGNTYLEWYLQKPGQSPKLLIYKVSNRFSGVPDRFSGSGSGTDFTLKISRVEAEDLGVYYCFQGSHVPFTFGSGTKLEIK | 2220 | 94 | > 30 µg/mL | 25 | 
6 | chAb5 (antibody, human IgG1, kappa, V domains shown, chimeric, murine variable and human G1/kappa constant regions) VH: QVQLQQPGAELVRPGTSVKLSCKASGYTFTSFWMHWVKQRPGQGLEWIGVIDPSDTYTNYNQKFKGKATLTVDTSSSTAYMQLSSLTSEDSAVYYCARGDYSNWFTYWGQGTLVTVSA VL: DVVMTQTPLSLPVSLGDQASISCRSSQRLVHSNGNTYLHWYLQKPGQSPKLLIYKVSNRFSGVPDRFSGSGSGTDFTLKISRVEAEDLGVYFCSQSTHVPWTFGGGTKLEIKT |  |  | 0.69 µg/mL |  | 
7 | Ab7 (antibody, V domains shown, murine monoclonal, isotype G1; also called murine Ab7) VH: QVQLQQPGAELVMPGTSVKLSCKASGYTFTSYWIHWVKQRPGQGLEWIGEIDPSDSYTNYNQKFKGKATLTVDRSSSTAYMQLSSLTSEDSAVYYCGRSFFTNWFAYWGQGTLVTVSA VL: DVVMTQTPLSLPVSLGDQASISCRSSQSLVHSNGNTYLHWYLQKPGQSPKLLIYKVSNRFSGVPDRFSGSGSGTDFTLKINRVEAEDLGVYFCSQSTHVPFTFGSGTKLEIK | 2380 | 82 | 4.42 µg/mL | 27 | 
8 | Ab13 (antibody, V domains shown, murine monoclonal, isotype G2a; also called murine Ab13) VH: QVQLQQPGAELVRPGTSVKLSCKASGYTFTSFWMHWVKQRPGQGLEWIGVIDPSDSHTNYNQKFKGKATLTVNTSSSTAYMHLSSLTSEDSAVYYCARGDYSNWFTYWGQGTLVTVSA VL: DVVMTQTPFSLPVSLGDQASISCRSSQSLVHSNGNTYLHWYLQKPGQSPKLLIYKVSNRFSGVPDRFSGSGSGTDFTLKISRVEAEDLELYFCSQSTHVPWTFGGGTKLEIK | 1500 | 60 | 7.56 µg/mL | 143 | 
9 | Ab39 (antibody, human IgG1, kappa, V domains shown, humanized from Ab7; G1; also called Ab4 HC.1a and Ab4 LC.1a) VH: EVQLVQSGAEVKKPGSSVKVSCKASGYTFTSYWIHWVRQAPGQGLEWIGEIDPSDSYTNYNQKFKGRATLTVDKSSSTAYMELSSLRSEDTAVYYCARSFFTNWFAYWGQGTLVTVSS VL: DVVMTQTPLSLSVTPGQPASISCRSSQSLVHSNGNTYLHWYLQKPGQSPQLLIYKVSNRFSGVPDRFSGSGSGTDFTLKISRVEAEDVGVYFCSQSTHVPFTFGGGTKVEIKR |  |  |  |  | ~22 fold
10 | Ab12 (antibody, V domains shown, murine monoclonal, isotype G2a; reported as PRLR agonist; also called murine Ab12) VH: DVQLQESGPGLVKPSQSLSLTCTVTGYSITSDYAWNWIRQFPGNKLEWMGYIGYSGRTSFNPSLKSRISITRDTSKNQFFLQLNSVTTEDTATYYCARGGFAMDYWGQGTSVTVSS VL: QIVLTQSPGIMSASPGEKVTMTCSASSSVTYMYWYQQKPRSSPKPWIYLTSNLASGVPARFSGSGSGTSYSLTISSMEAEDGATYYCQQWSSTPPLTFGGGTKLELN | 1680 | 17 |  | 90 | 
11 | chAb7 (antibody, human IgG1, kappa, V domains shown, chimeric, murine variable and human G1/kappa constant regions) VH: QVQLQQPGAELVMPGTSVKLSCKASGYTFTSYWIHWVKQRPGQGLEWIGEIDPSDSYTNYNQKFKGKATLTVDRSSSTAYMQLSSLTSEDSAVYYCGRSFFTNWFAYWGQGTLVTVSA VL: DVVMTQTPLSLPVSLGDQASISCRSSQSLVHSNGNTYLHWYLQKPGQSPKLLIYKVSNRFSGVPDRFSGSGSGTDFTLKINRVEAEDLGVYFCSQSTHVPFTFGSGTKLEIKT |  |  | 16.8 µg/mL |  | 
